Source: patent US20110002929A1 (published 2011)

T1: human RANK-L (human, UniProt O14788 140-317)
T1 chain: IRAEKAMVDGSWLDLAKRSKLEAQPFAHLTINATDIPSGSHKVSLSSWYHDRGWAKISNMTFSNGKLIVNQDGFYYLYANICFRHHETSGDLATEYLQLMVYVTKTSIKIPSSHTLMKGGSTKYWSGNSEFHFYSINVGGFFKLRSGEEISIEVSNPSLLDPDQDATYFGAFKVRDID


Biological target: T1, human RANK-L
Assay: AlphaScreen competition

| IC50 | Binder |
| --- | --- |
| 0.167 nM | RANKL13hum5 (VHH) VHH: EVQLVESGGGLVQPGGSLRLSCAASGFTFSSYPMGWFRQAPGKGREFVSSITGSGGSTYYADSVKGRFTISRDNAKNTLYLQMNSLRPEDTAVYYCAAYIRPDTYLSRDYRKYDYWGQGTLVTVSS |
| 0.156 nM | RANKL13hum5_D62E (VHH) VHH: EVQLVESGGGLVQPGGSLRLSCAASGFTFSSYPMGWFRQAPGKGREFVSSITGSGGSTYYAESVKGRFTISRDNAKNTLYLQMNSLRPEDTAVYYCAAYIRPDTYLSRDYRKYDYWGQGTLVTVSS |
| 0.228 nM | RANKL13 (VHH) VHH: EVQLVESGGGLVQAGGSLRLSCAASGRTFRSYPMGWFRQAPGKEREFVASITGSGGSTYYADSVKGRFTISRDNAKNTVYLQMNSLRPEDTAVYSCAAYIRPDTYLSRDYRKYDYWGQGTQVTVSS |
